Results reported in patent US20220096654A1, “PYRROLOBENZODIAZEPINE-ANTIBODY CONJUGATES AND USES THEREOF” (ADC THERAPEUTICS SA, priority 2020, published 2022).

T1: human CD45 (human, UniProt P08575 26-1306)
T1 sequence: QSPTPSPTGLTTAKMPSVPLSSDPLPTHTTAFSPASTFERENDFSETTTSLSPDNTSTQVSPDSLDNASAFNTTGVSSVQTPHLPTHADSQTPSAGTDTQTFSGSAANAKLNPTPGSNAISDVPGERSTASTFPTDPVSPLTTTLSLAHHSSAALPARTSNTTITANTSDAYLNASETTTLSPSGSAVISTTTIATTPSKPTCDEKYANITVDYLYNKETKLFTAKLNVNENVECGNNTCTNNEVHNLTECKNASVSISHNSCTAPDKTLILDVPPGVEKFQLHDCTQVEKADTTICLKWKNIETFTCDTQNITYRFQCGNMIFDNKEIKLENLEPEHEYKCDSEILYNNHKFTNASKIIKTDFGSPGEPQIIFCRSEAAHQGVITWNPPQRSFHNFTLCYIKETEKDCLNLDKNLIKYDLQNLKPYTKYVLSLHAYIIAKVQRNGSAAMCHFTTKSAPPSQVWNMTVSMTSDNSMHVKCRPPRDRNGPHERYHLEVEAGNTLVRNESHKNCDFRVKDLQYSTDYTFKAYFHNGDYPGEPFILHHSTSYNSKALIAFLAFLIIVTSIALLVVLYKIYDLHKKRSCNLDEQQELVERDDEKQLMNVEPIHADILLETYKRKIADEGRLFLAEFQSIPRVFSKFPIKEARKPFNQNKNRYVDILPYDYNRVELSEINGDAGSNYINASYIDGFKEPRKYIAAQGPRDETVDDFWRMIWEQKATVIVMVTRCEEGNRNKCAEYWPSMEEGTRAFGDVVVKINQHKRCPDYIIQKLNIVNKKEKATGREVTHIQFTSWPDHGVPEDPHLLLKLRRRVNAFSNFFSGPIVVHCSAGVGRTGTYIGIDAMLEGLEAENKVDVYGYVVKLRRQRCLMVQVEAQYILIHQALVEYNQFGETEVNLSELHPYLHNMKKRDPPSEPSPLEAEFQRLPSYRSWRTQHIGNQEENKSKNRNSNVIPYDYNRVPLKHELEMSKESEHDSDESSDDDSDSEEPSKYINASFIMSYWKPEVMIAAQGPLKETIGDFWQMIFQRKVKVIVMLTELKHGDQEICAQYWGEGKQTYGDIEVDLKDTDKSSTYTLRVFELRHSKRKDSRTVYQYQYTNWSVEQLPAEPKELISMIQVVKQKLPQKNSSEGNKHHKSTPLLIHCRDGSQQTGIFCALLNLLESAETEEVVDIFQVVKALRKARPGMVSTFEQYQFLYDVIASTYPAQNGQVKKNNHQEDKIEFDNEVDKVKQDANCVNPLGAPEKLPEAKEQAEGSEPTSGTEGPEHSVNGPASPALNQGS


Legend:
Assay in all cases: cell-based or functional assay
human CD45 [1] = target: T1, human CD45
human CD45 [2] = target: T1, human CD45; remark: listed apart in the source
human CD45 [3] = target: T1, human CD45; remark: listed apart in the source

Binder	Average EC50, viability assay, Jurkat (CD45+), 5 days (human CD45 [1])	Average EC50, viability assay, OCIM1 (CD45+), 5 days (human CD45 [1])	Average EC50, clonogenic assay, primary human CD34+ cells (human CD45 [2])	EC50, clonogenic assay, CD34+ PBSC (CD45+) (human CD45 [3])	EC50, viability assay, Jurkat (CD45+), 72 h (human CD45 [3])	EC50, viability assay, OCIM1 (CD45+), 72 h (human CD45 [3])
YTH24.5-rat IgG2b-PBD (drug-linker B1) (antibody, V domains shown, PBD dimer drug-linker B1; light chains unconjugated or attached to a single molecule of B1; sites not given; PBD dimer drug-linker B1 conjugated after TCEP reduction; heavy chains attached to up to five molecules of B1; sites not given; DAR 1.94 (preparation) / 2.00) VH: QVNLLQSGAALVKPGASVKLSCKASSYTFTDYYIHWVKQSHGKTLEWIGYINPKSGFTNYNEKFRRKATLTVDKSTNTAYMDISRLTSEDSATYYCTRRTGVIPMDAWGQGASVTVSS VL: DVVMTQTPVSLSVSLGGQVSISCRSSQSFVSSDGNTYLNWYLQKPGQSPQLLIYKVSNRLSGVPDRFSGSGSGTDFTLKISRVEHDDLGVYYCGQASKIPLTFGSGTKLEIKR	0.213 pM	0.03 pM	2.64 pM	16.5 pM	5.36 pM	1.38 pM
YTH24.5-B2 (antibody, V domains shown, PBD drug-linker B2 conjugated; sites and DAR not stated) VH: QVNLLQSGAALVKPGASVKLSCKASSYTFTDYYIHWVKQSHGKTLEWIGYINPKSGFTNYNEKFRRKATLTVDKSTNTAYMDISRLTSEDSATYYCTRRTGVIPMDAWGQGASVTVSS VL: DVVMTQTPVSLSVSLGGQVSISCRSSQSFVSSDGNTYLNWYLQKPGQSPQLLIYKVSNRLSGVPDRFSGSGSGTDFTLKISRVEHDDLGVYYCGQASKIPLTFGSGTKLEIKR	2.12 pM	0.025 pM	32.7 pM	–	–	–
YTH24.5-B4 (antibody, V domains shown, PBD drug-linker B4 (non-cleavable) conjugated; sites and DAR not stated) VH: QVNLLQSGAALVKPGASVKLSCKASSYTFTDYYIHWVKQSHGKTLEWIGYINPKSGFTNYNEKFRRKATLTVDKSTNTAYMDISRLTSEDSATYYCTRRTGVIPMDAWGQGASVTVSS VL: DVVMTQTPVSLSVSLGGQVSISCRSSQSFVSSDGNTYLNWYLQKPGQSPQLLIYKVSNRLSGVPDRFSGSGSGTDFTLKISRVEHDDLGVYYCGQASKIPLTFGSGTKLEIKR	0.052 pM	0.096 pM	4.92 pM	–	–	–
YTH24.5-B7 (antibody, V domains shown, PBD drug-linker B7 conjugated; sites and DAR not stated) VH: QVNLLQSGAALVKPGASVKLSCKASSYTFTDYYIHWVKQSHGKTLEWIGYINPKSGFTNYNEKFRRKATLTVDKSTNTAYMDISRLTSEDSATYYCTRRTGVIPMDAWGQGASVTVSS VL: DVVMTQTPVSLSVSLGGQVSISCRSSQSFVSSDGNTYLNWYLQKPGQSPQLLIYKVSNRLSGVPDRFSGSGSGTDFTLKISRVEHDDLGVYYCGQASKIPLTFGSGTKLEIKR	8.4 pM	2.18 pM	35.5 pM	–	–	–
YTH24.5-hIgG1-AAA-PBD (antibody, DAR 2.08, V domains shown) VH: QVNLLQSGAALVKPGASVKLSCKASSYTFTDYYIHWVKQSHGKTLEWIGYINPKSGFTNYNEKFRRKATLTVDKSTNTAYMDISRLTSEDSATYYCTRRTGVIPMDAWGQGASVTVSS VL: DVVMTQTPVSLSVSLGGQVSISCRSSQSFVSSDGNTYLNWYLQKPGQSPQLLIYKVSNRLSGVPDRFSGSGSGTDFTLKISRVEHDDLGVYYCGQASKIPLTFGSGTKLEIK	–	–	–	7.9 pM	23 pM	6.8 pM
